{"source": "patent US12540161B2", "about": "“Linkers” (BicycleTx Limited, priority 2020, dated 2026)", "key": {"in vitro [1]": {"assay": "in vitro", "details": "human, plasma"}, "[2]": {"assay": "Plasma stability analysis, mouse plasma", "details": "plasma, BTCs", "protocol": "Pooled frozen plasma was thawed in a water bath at 37° C. Plasma was centrifuged at 4000 rpm for 5 min and the clots were removed if any. The pH will be adjusted to 7.4±0.1 if required. 1 mM stock solution was prepared with DMSO. Propantheline (positive control) was prepared by making a 100 μM working solution by diluting 5 μL of the stock solution (10 mM) with 495 μL ultra pure water. 100 μM working solutions of test compounds were made up by diluting 10 μL of the stock solution (1 mM) with 90 μL DMSO. 98 μL of blank plasma was spiked with 2 μL of dosing solution (100 μM) to achieve 2 μM of the final concentration in duplicate and samples were incubated at 37° C. in a water bath. […] An aliquot of supernatant (150 μL) was transferred from each well before submitting for LC-MS/MS analysis.\nThe % remaining test compound after incubation in plasma was calculated using following equation: Remaining=100×(PAR at appointed incubation time/PAR at T0 time)\nwhere PAR is the peak area ratio of analyte versus internal standard (IS).\nThe half-life (T½) was calculated from a log linear plot of concentration versus time."}, "Cathepsin B": {"molecular_target": "Cathepsin B (Homo sapiens, UniProt P07858)", "assay": "Cathepsin B (CatB) cleavage assay", "format": "biochemical", "details": "BTCs; for half-life at 40 μM: read-out: CatB t1/2 (converted)", "protocol": "15 μL of test compound solution (2 mM in DMSO) was added to the incubation plate in duplicate. 30 μL of Cathepsin B stock solution (16 μM) was pre-activated with 1500 μL activation buffer for 10 min at room temperature. The Cathepsin B solution was diluted in 13.17 mL water, then 735 μL activatived enzyme mixture was added to the incubation plate. The mixture was incubated at 37° C. in a waterbath. […] The samples were mixed and centrifuged at 4000 rpm for 20 min. 50 μL of supernatant was taken into a new plate containing 150 μL ultra-pure water and the samples mixed thoroughly before submitting to LC-MS/MS analysis."}, "in vitro [3]": {"assay": "in vitro", "details": "rat, plasma"}, "in vitro [4]": {"assay": "in vitro", "details": "mouse, plasma"}, "in vivo [5]": {"assay": "in vivo", "details": "male, CD-1, mouse, plasma, intravenous", "method": "Male CD-1 mice were dosed with each Bicycle Conjugate formulated in 25 mM histidine HCl, 10% sucrose pH 7 via tail vein injection. Serial bleeding (about 80 μL blood/time point) was performed via submadibular or saphenous vein at each time point. All blood samples were immediately transferred into prechilled microcentrifuge tubes containing 2 μL K2-EDTA (0.5M) as anti-coagulant and placed on wet ice. Blood samples were immediately processed for plasma by centrifugation at approximately 4° C., 3000 g. The precipitant including internal standard (350 μL) was immediately added into the 35 μL plasma sample, mixed well and centrifuged at 3220 g, 4° C. for 15 minutes. The supernatant was transferred into pre-labeled polypropylene microcentrifuge tubes, and then quick-frozen over dry ice. The samples were stored at 70° C. or below as needed until analysis. Supernatant samples were mixed with 50 μL water, vortexed well and centrifuged at 3220 g, 4° C. for 15 minutes. A sample of the supernatant was injected for LC-MS/MS analysis using an Acquity UPLC with AB Sciex 6500+ Triple Quad MS in positive ion mode to determine the concentrations of Bicycle Conjugate and released payload. Plasma concentration versus time data were analyzed by non-compartmental approaches using the Phoenix WinNonlin 6.3 software program. C0, Cl, Vdss, T1/2, AUC(0-inf), MRT(0-last), MRT(0-inf) nd graphs of plasma concentration versus time profile were reported."}, "in vitro [6]": {"assay": "in vitro", "details": "cynomolgus monkey, plasma"}, "in vitro [7]": {"assay": "in vitro", "details": "human, plasma, pH 7.4", "method": "(§1) Pooled frozen plasma was thawed in a water bath at 37° C. Plasma was centrifuged at 4000 rpm for 5 min and the clots were removed if any. The pH will be adjusted to 7.4±0.1 if required. 1 mM stock solution was prepared with DMSO. Propantheline (positive control) was prepared by making a 100 μM working solution by diluting 5 μL of the stock solution (10 mM) with 495 μL ultra pure water. 100 μM working solutions of test compounds were made up by diluting 10 μL of the stock solution (1 mM) with 90 μL DMSO. 98 μL of blank plasma was spiked with 2 μL of dosing solution (100 μM) to achieve 2 μM of the final concentration in duplicate and samples were incubated at 37° C. in a water bath. At each time point (0, 1, 2, 4, 6 and 24 hr), 400 μL of 200 ng/mL tolbutamide and labetalol in 100% MeOH was added and mixed thoroughly to precipitate proteins. Sample plates were centrifuged at 4,000 rpm for 15 min. An aliquot of supernatant (150 μL) was transferred from each well before submitting for LC-MS/MS analysis.\n(§2) The appointed incubation time points are T0 (0 hr), Tn (n=0, 1, 2, 4, 6, 24 hr). The half-life (T½) was calculated from a log linear plot of concentration versus time.\n(§3) When the % remaining value at the maximal incubation time, which was 24 hr in this study, was higher than 75%, it is considered to be within the acceptable experimental variation."}, "in vitro [8]": {"assay": "in vitro", "details": "rat, plasma, pH 7.4", "method": "as §1, §2, §3"}, "in vivo [9]": {"assay": "in vivo", "details": "rat, plasma"}, "[10]": {"details": "rat"}, "[11]": {"details": "pH 7.4, Mouse plasma t1/2 (EDTA), EDTA anticoagulant"}, "[12]": {"details": "pH 7.4, Mouse plasma t1/2 (Herparin), heparin anticoagulant"}, "[13]": {"details": "Plasma protein binding (% Unbound) Rat"}}, "data": [{"smiles": "CC[C@H](C)[C@@H]([C@@H](CC(=O)N1CCC[C@H]1[C@H](OC)[C@@H](C)C(=O)N[C@H](C)[C@@H](O)c1ccccc1)OC)N(C)C(=O)[C@@H](NC(=O)[C@H](C(C)C)N(C)C(=O)OCc1ccc(NC(=O)[C@H](CCN)NC(=O)[C@@H](NC(=O)[C@H](CCC(=O)O)NC(=O)Cn2cc(CCC(=O)NCCC(=O)N(C)CC(=O)N(C)CC(=O)N(C)CC(=O)N(C)CC(=O)N(C)CC(=O)N(C)CC(=O)N(C)CC(=O)N(C)CC(=O)N(C)CC(=O)N(C)CC(=O)N[C@@H](C)C(=O)N[C@H]3CN(C)Cc4cc5cc(c4)CN(C)C[C@@H](C(N)=O)NC(=O)[C@H](C(C)(C)C)NC(=O)[C@H](CC(=O)O)NC(=O)[C@H](Cc4ccc(O)cc4)NC(=O)[C@H](Cc4ccccc4)NC(=O)[C@H](CC(=O)O)NC(=O)[C@H](CCC(=O)O)NC(=O)[C@H](CSC5)NC(=O)[C@@H](C)NC(=O)[C@H](Cc4cccc5ccccc45)NC(=O)[C@H](CCC(=O)O)NC(=O)[C@H](CC(N)=O)NC(=O)[C@@H](C)NC3=O)nn2)C(C)C)cc1)C(C)C", "note": "[BCY10981, MMAE-PAB-(Dab-Val-Glu)-BCY3900]", "values": [{"measurement": "fraction unbound", "setting": "in vitro [1]", "value": 0.653}, {"measurement": "half-life at 2 μM", "setting": "[2]; [11]", "value": "> 3470", "unit": "min"}, {"measurement": "half-life at 2 μM", "setting": "[2]; [12]", "value": "> 3470", "unit": "min"}, {"measurement": "% Parent remaining after incubation with CatB, 0 h", "setting": "Cathepsin B", "value": 100, "unit": "%"}, {"measurement": "% Parent remaining after incubation with CatB, 1 h", "setting": "Cathepsin B", "value": 0, "unit": "%"}, {"measurement": "% Parent remaining after incubation with CatB, 2 h", "setting": "Cathepsin B", "value": 0, "unit": "%"}, {"measurement": "% Parent remaining after incubation with CatB, 4 h", "setting": "Cathepsin B", "value": 0, "unit": "%"}, {"measurement": "% Parent remaining after incubation with CatB, 6 h", "setting": "Cathepsin B", "value": 0, "unit": "%"}, {"measurement": "% Parent remaining after incubation with CatB, 24 h", "setting": "Cathepsin B", "value": 0, "unit": "%"}, {"measurement": "half-life at 40 μM", "setting": "Cathepsin B", "value": "< 12", "unit": "min"}, {"measurement": "fraction unbound", "setting": "in vitro [3]; [13]", "value": 0.417}, {"measurement": "fraction unbound", "setting": "in vitro [4]", "value": 0.288}, {"measurement": "C0", "setting": "in vivo [5]", "value": 30700, "unit": "ng/mL"}, {"measurement": "Vd", "setting": "in vivo [5]", "value": 0.15, "unit": "L/kg"}, {"measurement": "clearance", "setting": "in vivo [5]", "value": 3.9, "unit": "mL/min/kg"}, {"measurement": "half-life", "setting": "in vivo [5]", "value": 36, "unit": "min"}, {"measurement": "fraction unbound", "setting": "in vitro [6]", "value": 0.459}, {"measurement": "half-life at 2 μM", "setting": "in vitro [7]", "value": 3.08, "unit": "days"}, {"measurement": "half-life at 2 μM", "setting": "in vitro [8]", "value": "> 2.41", "unit": "days"}]}, {"smiles": "CC[C@H](C)[C@@H]([C@@H](CC(=O)N1CCC[C@H]1[C@H](OC)[C@@H](C)C(=O)N[C@H](C)[C@@H](O)c1ccccc1)OC)N(C)C(=O)[C@@H](NC(=O)[C@H](C(C)C)N(C)C(=O)OCc1ccc(NC(=O)[C@H](CCCNC(N)=O)NC(=O)[C@@H](NC(=O)Cn2cc(CCC(=O)NCCC(=O)N(C)CC(=O)N(C)CC(=O)N(C)CC(=O)N(C)CC(=O)N(C)CC(=O)N(C)CC(=O)N(C)CC(=O)N(C)CC(=O)N(C)CC(=O)N(C)CC(=O)N[C@@H](C)C(=O)N[C@H]3CN(C)Cc4cc5cc(c4)CN(C)C[C@@H](C(N)=O)NC(=O)[C@H](C(C)(C)C)NC(=O)[C@H](CC(=O)O)NC(=O)[C@H](Cc4ccc(O)cc4)NC(=O)[C@H](Cc4ccccc4)NC(=O)[C@H](CC(=O)O)NC(=O)[C@H](CCC(=O)O)NC(=O)[C@H](CSC5)NC(=O)[C@@H](C)NC(=O)[C@H](Cc4cccc5ccccc45)NC(=O)[C@H](CCC(=O)O)NC(=O)[C@H](CC(N)=O)NC(=O)[C@@H](C)NC3=O)nn2)C(C)C)cc1)C(C)C", "note": "[BCY7761, MMAE-PAB-(Cit-Val)-BCY3900, reference compound]", "values": [{"measurement": "fraction unbound", "setting": "in vitro [1]", "value": 0.211}, {"measurement": "half-life at 2 μM", "setting": "[2]; [11]", "value": 546, "unit": "min"}, {"measurement": "half-life at 2 μM", "setting": "[2]; [12]", "value": 552, "unit": "min"}, {"measurement": "half-life at 2 μM", "setting": "[2]; pH 7.4, Mouse plasma t1/2 expt 2 (EDTA), EDTA anticoagulant, experiment 2", "value": 408, "unit": "min"}, {"measurement": "% Parent remaining after incubation with CatB, 0 h", "setting": "Cathepsin B", "value": 100, "unit": "%"}, {"measurement": "% Parent remaining after incubation with CatB, 1 h", "setting": "Cathepsin B", "value": 33.687, "unit": "%"}, {"measurement": "% Parent remaining after incubation with CatB, 2 h", "setting": "Cathepsin B", "value": 15.1, "unit": "%"}, {"measurement": "% Parent remaining after incubation with CatB, 4 h", "setting": "Cathepsin B", "value": 4.93, "unit": "%"}, {"measurement": "% Parent remaining after incubation with CatB, 6 h", "setting": "Cathepsin B", "value": 1.01, "unit": "%"}, {"measurement": "% Parent remaining after incubation with CatB, 24 h", "setting": "Cathepsin B", "value": 0.462, "unit": "%"}, {"measurement": "half-life at 40 μM", "setting": "Cathepsin B", "value": 54, "unit": "min"}, {"measurement": "fraction unbound", "setting": "in vitro [3]; PPB (% Unbound), rat (Table 9)", "value": 0.11}, {"measurement": "fraction unbound", "setting": "in vitro [3]; [13]", "value": 0.106}, {"measurement": "half-life", "setting": "in vivo [9]", "value": 29.4, "unit": "min"}, {"measurement": "AUC ratio", "setting": "[10]", "value": 0.00445}, {"measurement": "fraction unbound", "setting": "in vitro [4]", "value": 0.173}, {"measurement": "C0", "setting": "in vivo [5]", "value": 24800, "unit": "ng/mL"}, {"measurement": "Vd", "setting": "in vivo [5]", "value": 0.04, "unit": "L/kg"}, {"measurement": "clearance", "setting": "in vivo [5]", "value": 1, "unit": "mL/min/kg"}, {"measurement": "half-life", "setting": "in vivo [5]", "value": 28.8, "unit": "min"}, {"measurement": "fraction unbound", "setting": "in vitro [6]", "value": 0.187}, {"measurement": "half-life at 2 μM", "setting": "in vitro [7]", "value": "> 2.41", "unit": "days"}, {"measurement": "half-life at 2 μM", "setting": "in vitro [8]", "value": 2.37, "unit": "days"}]}]}
